Laboratory results taken from the supplement of paper PMC7877785.
± gives the uncertainty stated by the source.

Test: self-splicing fitness, log relative to wild type (ln ratio); higher = more splicing; Tetrahymena group I intron in knt gene, E. coli kanamycin selection, DiMSum; sequences stand for … in CUCUCU…GGAGGGAAAAGUUAUCAGGCAUGCACCUGGUAGCUAGUCUUUAAACCAAUAGAUUGCAUCGGUUUAAAAGGCAAGACCGUCAAAUUGCGGGAAAGGGGUCAACAGCCGUUCAGUACCAAGUCUCAGGGGAAACUUUGAGAUGGCCUUGCAAAGGGUAUGGUAAUAAGCUGACGGACAUGGUCCUAACCACGCAGCCAAGUCCUAAGUCAACAGAUCUUCUGUUGAUAUGGAUGCAGUUCACAGACUAAAUGUCGGUCGGGGAAGAUGUAUUCUUCUCAUAAGAUAUAGUCGGACCUCUCCUUAAUGGGAGCUAGCGGAUGAAGUGAUGCAACACUGGAGCCGCUGGGAACUAAUUUGUAUGCGAAAGUAUAUUGAUUAGUUUUGGAGUACUCGUGGUCG
Summary of the method: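 Colonies from six replicate transformations of E. coli BL21(DE3) were pooled and amplicon-sequenced on an Illumina HiSeq 2500. The library placed an intron with all eight P1ex-region nucleotides randomised inside the knt kanamycin-resistance gene on pET-22b(+), and cells grew overnight at 37°C or 30°C on LB agar with or without 25 μg/mL kanamycin (plus 100 μg/mL carbenicillin, 50 μM IPTG, 0.2% rhamnose). Fitness is the DiMSum error-weighted combination of wild-type-normalised replicate fold changes, kanamycin versus none.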

Row | Sequence | self-splicing fitness (ln) (30 °C) | self-splicing fitness (ln) (37 °C)
1 | CAGCAGCAAUAUUACGCUCG | -1.95 ± 0.16 | -0.385 ± 0.21
2 | CAGCAGCAAUAUUACGCUGA | -3.02 ± 0.22 | -2.09 ± 0.18
3 | CAGCAGCAAUAUUACGGAGG | -1.19 ± 0.082 | -0.627 ± 0.12
4 | CAGCAGCAAUAUUACGGCAU | -0.874 ± 0.074 | -0.81 ± 0.096
5 | CAGCAGCAAUAUUACGGCCC | -0.505 ± 0.15 | -0.0529 ± 0.23
6 | CAGCAGCAAUAUUACGGGCA | -2.11 ± 0.095 | -1.07 ± 0.099
7 | CAGCAGCAAUAUUACGGGUU | -4.98 ± 0.26 | -1.6 ± 0.13
8 | CAGCAGCAAUAUUACGGUUU | -0.8 ± 0.062 | -0.225 ± 0.084
9 | CAGCAGCAAUAUUACGUAAC | -4.17 ± 0.39 | -2.88 ± 0.32
10 | CAGCAGCAAUAUUACGUACC | -3.85 ± 0.16 | -2.46 ± 0.16
11 | CAGCAGCAAUAUUACGUACU | -2.54 ± 0.24 | -2.5 ± 0.32
12 | CAGCAGCAAUAUUACGUAGG | -0.47 ± 0.063 | -0.331 ± 0.094
13 | CAGCAGCAAUAUUACGUCGG | -0.346 ± 0.063 | -0.0699 ± 0.09
14 | CAGCAGCAAUAUUACGUGAA | -2.06 ± 0.075 | -0.955 ± 0.09
15 | CAGCAGCAAUAUUACGUGAC | -3.41 ± 0.24 | -1.86 ± 0.19
16 | CAGCAGCAAUAUUACGUGAG | -0.675 ± 0.06 | -0.267 ± 0.086
17 | CAGCAGCAAUAUUACGUGGG | -3.53 ± 0.14 | -2.31 ± 0.11
18 | CAGGAGCAAUAUUACGAACG | -0.795 ± 0.11 | -0.844 ± 0.13
19 | CAGGAGCAAUAUUACGAAUG | -3.6 ± 0.2 | -2.76 ± 0.22
20 | CAGGAGCAAUAUUACGACUU | -1.48 ± 0.19 | -0.618 ± 0.22
21 | CAGGAGCAAUAUUACGCAUU | – | 0.11 ± 0.4
22 | CAGGAGCAAUAUUACGCCGU | -4.09 ± 0.31 | -2.29 ± 0.29
23 | CAGGAGCAAUAUUACGCGCA | -3.62 ± 0.3 | -1.62 ± 0.25
24 | CAGGAGCAAUAUUACGGACG | -0.757 ± 0.1 | -0.376 ± 0.11
25 | CAGGAGCAAUAUUACGGAGC | -2.2 ± 0.39 | -3.3 ± 0.47

Row | Sequence | self-splicing fitness (ln) (30 °C) | self-splicing fitness (ln) (37 °C)
26 | CAGGAGCAAUAUUACGGGGA | -5.01 ± 0.38 | -3.47 ± 0.37
27 | CAGGAGCAAUAUUACGUCGG | -0.734 ± 0.099 | -0.66 ± 0.13
28 | CAGUAGCAAUAUUACGAAAA | -3.58 ± 0.47 | -1.8 ± 0.32
29 | CAGUAGCAAUAUUACGAAUU | -3.34 ± 0.28 | –
30 | CAGUAGCAAUAUUACGACUU | 0.0553 ± 0.058 | 0.35 ± 0.071
31 | CAGUAGCAAUAUUACGAUAA | -3.55 ± 0.47 | –
32 | CAGUAGCAAUAUUACGAUCA | -1.67 ± 0.24 | -2.04 ± 0.32
33 | CAGUAGCAAUAUUACGAUGU | -2.34 ± 0.16 | -1.65 ± 0.18
34 | CAGUAGCAAUAUUACGCAUA | -2.04 ± 0.2 | -1.59 ± 0.21
35 | CAGUAGCAAUAUUACGCAUG | -2.31 ± 0.2 | -2.46 ± 0.29
36 | CAGUAGCAAUAUUACGCUCC | – | -1.31 ± 0.4
37 | CAGUAGCAAUAUUACGGGCG | -0.256 ± 0.089 | 0.0762 ± 0.098
38 | CAGUAGCAAUAUUACGGUUA | -2.63 ± 0.14 | -2.69 ± 0.15
39 | CAGUAGCAAUAUUACGUCUU | -1.17 ± 0.067 | 0.135 ± 0.076
40 | CAGUAGCAAUAUUACGUGAC | -4.5 ± 0.36 | -2.23 ± 0.31
41 | CAGUAGCAAUAUUACGUGCA | -3.14 ± 0.13 | -2.45 ± 0.14
42 | CAGUAGCAAUAUUACGUGUA | -4.62 ± 0.34 | -2.55 ± 0.19
43 | CAGUAGCAAUAUUACGUUCG | 0.207 ± 0.07 | 0.209 ± 0.1
44 | CAUAAGCAAUAUUACGAAAC | -3.31 ± 0.39 | -2.38 ± 0.45
45 | CAUAAGCAAUAUUACGACAA | -3.05 ± 0.28 | -1.59 ± 0.19
46 | CAUAAGCAAUAUUACGACAG | -0.32 ± 0.072 | 0.334 ± 0.09
47 | CAUAAGCAAUAUUACGACCG | 0.135 ± 0.085 | 0.553 ± 0.14
48 | CAUAAGCAAUAUUACGACGA | -2.01 ± 0.17 | -0.546 ± 0.11
49 | CAUAAGCAAUAUUACGACUA | -1.94 ± 0.095 | -0.427 ± 0.078
50 | CAUAAGCAAUAUUACGAUAA | -4.17 ± 0.37 | -1.45 ± 0.2

Row | Sequence | self-splicing fitness (ln) (30 °C) | self-splicing fitness (ln) (37 °C)
51 | CAUAAGCAAUAUUACGAUAG | 0.359 ± 0.072 | 0.232 ± 0.084
52 | CAUAAGCAAUAUUACGCCCA | -2.14 ± 0.21 | -1.35 ± 0.29
53 | CAUAAGCAAUAUUACGCCCU | -2.76 ± 0.43 | -2.4 ± 0.49
54 | CAUAAGCAAUAUUACGGCCC | -3.92 ± 0.4 | –
55 | CAUAAGCAAUAUUACGGCUU | -2.75 ± 0.2 | -3.07 ± 0.32
56 | CAUAAGCAAUAUUACGGUAG | -1.06 ± 0.087 | -0.382 ± 0.089
57 | CAUAAGCAAUAUUACGGUAU | -4.64 ± 0.26 | -2.94 ± 0.21
58 | CAUAAGCAAUAUUACGGUCC | -3.2 ± 0.25 | -2.28 ± 0.31
59 | CAUAAGCAAUAUUACGGUGC | -3.51 ± 0.18 | -3.18 ± 0.24
60 | CAUAAGCAAUAUUACGUAUA | -3.21 ± 0.12 | -2.32 ± 0.13
61 | CAUAAGCAAUAUUACGUCGG | -0.598 ± 0.061 | -0.568 ± 0.087
62 | CAUAAGCAAUAUUACGUGCC | -3.1 ± 0.21 | -2.66 ± 0.38
63 | CAUAAGCAAUAUUACGUGCU | -3.19 ± 0.3 | -1.89 ± 0.27
64 | CAUAAGCAAUAUUACGUUUC | -3.35 ± 0.21 | -2.26 ± 0.2
65 | CAUAAGCAAUAUUACGUUUG | -3.3 ± 0.17 | -2.46 ± 0.18
66 | CAUCAGCAAUAUUACGAAAA | – | -2.89 ± 0.28
67 | CAUCAGCAAUAUUACGACCA | -1.38 ± 0.19 | -1.1 ± 0.19
68 | CAUCAGCAAUAUUACGACCG | -0.142 ± 0.086 | 0.366 ± 0.12
69 | CAUCAGCAAUAUUACGACGG | -0.186 ± 0.085 | -0.0315 ± 0.1
70 | CAUCAGCAAUAUUACGAGCA | -2.05 ± 0.23 | -0.921 ± 0.14
71 | CAUCAGCAAUAUUACGCAAU | -4.01 ± 0.24 | -3.15 ± 0.17
72 | CAUCAGCAAUAUUACGCAUG | -2.03 ± 0.11 | -2.23 ± 0.13
73 | CAUCAGCAAUAUUACGCCUC | – | -1.57 ± 0.24
74 | CAUCAGCAAUAUUACGCGGA | -3.61 ± 0.27 | -2.6 ± 0.29
75 | CAUCAGCAAUAUUACGCGUG | -3.13 ± 0.095 | -2.16 ± 0.092

Row | Sequence | self-splicing fitness (ln) (30 °C) | self-splicing fitness (ln) (37 °C)
76 | CAUCAGCAAUAUUACGGACC | -3.04 ± 0.24 | -0.899 ± 0.22
77 | CAUCAGCAAUAUUACGGCCA | -2.63 ± 0.28 | -0.947 ± 0.27
78 | CAUCAGCAAUAUUACGGGAA | -2.53 ± 0.21 | -1.68 ± 0.17
79 | CAUCAGCAAUAUUACGUAAG | -0.0494 ± 0.068 | 0.711 ± 0.092
80 | CAUCAGCAAUAUUACGUCGG | -0.265 ± 0.055 | -0.317 ± 0.076
81 | CAUCAGCAAUAUUACGUGAG | -0.345 ± 0.055 | -0.244 ± 0.073
82 | CAUGAGCAAUAUUACGACGG | -0.356 ± 0.12 | -0.199 ± 0.17
83 | CAUGAGCAAUAUUACGAGAU | -4.03 ± 0.23 | -1.82 ± 0.28
84 | CAUGAGCAAUAUUACGAGCU | -2.78 ± 0.23 | –
85 | CAUGAGCAAUAUUACGAUAG | -1.55 ± 0.088 | -0.709 ± 0.1
86 | CAUGAGCAAUAUUACGAUCA | -2.99 ± 0.15 | -2.24 ± 0.16
87 | CAUGAGCAAUAUUACGCAAG | -3.15 ± 0.13 | -1.69 ± 0.12
88 | CAUGAGCAAUAUUACGCAGG | -3.17 ± 0.19 | -1.51 ± 0.2
89 | CAUGAGCAAUAUUACGCAUG | -3.01 ± 0.2 | -1.18 ± 0.25
90 | CAUGAGCAAUAUUACGCCCG | -1.56 ± 0.18 | -0.89 ± 0.2
91 | CAUGAGCAAUAUUACGCCUA | -2.28 ± 0.24 | -1.75 ± 0.26
92 | CAUGAGCAAUAUUACGCUGU | -3.14 ± 0.23 | -1.14 ± 0.23
93 | CAUGAGCAAUAUUACGGACG | -0.912 ± 0.087 | -0.391 ± 0.11
94 | CAUGAGCAAUAUUACGGCAA | -2.43 ± 0.17 | -2.02 ± 0.28
95 | CAUGAGCAAUAUUACGGCGA | -3.34 ± 0.31 | -2.53 ± 0.25
96 | CAUGAGCAAUAUUACGGGUG | -3.68 ± 0.19 | -2.43 ± 0.13
97 | CAUGAGCAAUAUUACGUAAC | -3.38 ± 0.35 | -2.61 ± 0.31
